System: MS2 coat protein
Test: apparent KD of MS2 coat protein; designed switch direction (-1 OFF switch, 1 ON switch): -1; higher = weaker reporter binding
In short: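 Normalised cluster fluorescence was curve-fitted, and each design's median over clusters is its apparent KD. Before this, SNAP-549-labelled MS2 coat protein was titrated from 0.7 or 1.5 nM, doubling to 3 µM, over RNA switches transcribed on Illumina chips by stalled E. coli RNA polymerase. Titrations had no input, 200 uM small-molecule ligand, or an oligonucleotide input, and steps lasted 0.8–1.5 h (lowest) to 10–20 min (highest).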

[1] = input ligand: microRNA oligo, concentration not stated

AGCUGUGGCCGAGGAUAUCACAUGAGGAUCACCCAUGUACAUGAUUAGGCCUGGUAACAGGCUCAUGAGAAGGCGGUCUCAGCA [Eli eng2 - 013] (Eterna round: R96, puzzle: Exclusion NG 2)
apparent KD of MS2 coat protein (input ligand: FMN 200 uM): 16.1 nM
apparent KD of MS2 coat protein [1]: 16.4 nM
apparent KD of MS2 coat protein (input ligand: none): 22.4 nM

AGCUGUGGCCGAGGAUAUCACGAACCAUGGAAAACCAUGGAACUCAUACAUGAGGAUCACCCAUGUGAGAAGGCGGUCUCAGCA [Eli eng2 - 019] (Eterna round: R96, puzzle: Exclusion NG 2)
apparent KD of MS2 coat protein [1]: 27 nM

AGCUGUGGCCGAGGAUAUCCAACUUCAAAUACCGACGUAUAGUCGGACAUGAGGAUCACCCAUGUGGAGAAGGCGGUCUCAGCA [Eli eng2 - 038] (Eterna round: R96, puzzle: Exclusion NG 2)
apparent KD of MS2 coat protein (input ligand: FMN 200 uM): 24.2 nM
apparent KD of MS2 coat protein [1]: 12.5 nM
apparent KD of MS2 coat protein (input ligand: none): 15.6 nM

AGCUGUGGCCGAGGAUAUCCACAUGAGGAUCACCCAUGUGAAUACCCAAUUAAGGGAUAACCGUGGGAGAAGGCGGUCUCAGCA [Eli eng2 - 048] (Eterna round: R96, puzzle: Exclusion NG 2)
apparent KD of MS2 coat protein (input ligand: FMN 200 uM): 80.9 nM
apparent KD of MS2 coat protein [1]: 112 nM
apparent KD of MS2 coat protein (input ligand: none): 167 nM

AGCUGUGGCCGAGGAUAUCCAGCCUUAAAUACCGACGUAUAGUCGGACAUGAGGAUCACCCAUGUGGAGAAGGCGGUCUCAGCA [Eli eng2 - 045] (Eterna round: R96, puzzle: Exclusion NG 2)
apparent KD of MS2 coat protein (input ligand: FMN 200 uM): 126 nM
apparent KD of MS2 coat protein [1]: 36.4 nM
apparent KD of MS2 coat protein (input ligand: none): 43.6 nM

AGCUGUGGCCGAGGAUAUCUAAACCUCAAAACCGAGGUAUACUCGGACAUGAGGAUCACCCAUGUAGAGAAGGCGGUCUCAGCA [Eli eng2 - 036] (Eterna round: R96, puzzle: Exclusion NG 2)
apparent KD of MS2 coat protein (input ligand: FMN 200 uM): 107 nM
apparent KD of MS2 coat protein [1]: 190 nM
apparent KD of MS2 coat protein (input ligand: none): 443 nM

AGCUGUGGCCGAGGAUAUCUAAUAACUCAAACCGAAAUAUAAUCGGACAUGAGGAUCACCCAUGUAGAGAAGGCGGUCUCAGCA [Eli eng2 - 063] (Eterna round: R96, puzzle: Exclusion NG 2)
apparent KD of MS2 coat protein [1]: 69.8 nM

AGCUGUGGCCGAGGAUAUCUGUUCCAAAUAACCGACGUAUAGUCGGACAUGAGGAUCACCCAUGUAGAGAAGGCGGUCUCAGCA [Eli eng2 - 101] (Eterna round: R96, puzzle: Exclusion NG 2)
apparent KD of MS2 coat protein (input ligand: FMN 200 uM): 136 nM
apparent KD of MS2 coat protein [1]: 38 nM
apparent KD of MS2 coat protein (input ligand: none): 63.9 nM

AGCUUUGGAGGAUAUUGAGCGGAAAACAUGAGGAUCACCCAUGUAAGUGGGCGAAAUGUAUAAGAAGGCCGAAGGU [Eternabot (L2) Solution 15] (Eterna round: R97, puzzle: Exclusion 5)
apparent KD of MS2 coat protein (input ligand: FMN 200 uM): 205 nM
apparent KD of MS2 coat protein (input ligand: none): 278 nM

AGCUUUUUGCUCGUCUUAUACAUGAGGAUCACCCAUGUAUUGGACCACAUCGAUAGAUGUGGACCAAGAAGCAUGGG [Omdei Mir OFFv1 C1] (Eterna round: R97, puzzle: Sensor, turn-off variant 1)
apparent KD of MS2 coat protein (input ligand: FMN 200 uM): 195 nM
apparent KD of MS2 coat protein (input ligand: none): 109 nM

AGGAAGCAAGGAUAUACGAGGAGAAGGUGUCCAUCUAAAUGACAUGAGGAUCACCCAUGUAGAAGGUGCGAGAA [JR_Exclu2_Sub050] (puzzle: Exclusion 2)
apparent KD of MS2 coat protein (Eterna round: R95, input ligand: FMN 200 uM): 112 nM
apparent KD of MS2 coat protein (Eterna round: R95, input ligand: microRNA oligo, concentration not stated): 47.4 nM
apparent KD of MS2 coat protein (Eterna round: R95, input ligand: none): 34.5 nM

AGGGAGCGAGGAUAUACAGAGUAGGAAACUACUCCCUCAGUACAUGAGGAUCACCCAUGUAGAAGGCGCCCGAA [EX2 A.1] (Eterna round: R97, puzzle: Exclusion 2)
apparent KD of MS2 coat protein (input ligand: FMN 200 uM): 38 nM
apparent KD of MS2 coat protein (input ligand: none): 23.8 nM

AGGGUGGGAGGAUAUCCAAUAUAUGACAUGAGGAUCACCCAUGUUUCCACUCGUACCUCCGGAGAAGGCCCUCCCA [Ex5 #22] (Eterna round: R97, puzzle: Exclusion 5)
apparent KD of MS2 coat protein (input ligand: FMN 200 uM): 21.5 nM
apparent KD of MS2 coat protein (input ligand: none): 22.1 nM

Source: the supplement of paper PMC9170038
